Measured values from patent US20240034813A1 (Janssen / Centocor, published 2024).

Legend:
[1] = target: T1, recombinant cMet/HGFR with c-terminal His-tag, Cy5-labeled (UniProt P08581 25-932, limits assumed, Cy5 label (reacted with Cy5 Mono NHS Ester; sites not stated)); experiment: competitive TR-FRET (Eu-amivantamab/Cy5-c-MET), EC50 ratio vs Reference Material; Ex. 2 Formulation 3 (acetate), 3 months at 25 C
T1 construct: Commercial protein; also called Cy5-c-MET; Cy5-labeled c-MET antigen; not shown: C-terminal His-tag
Excerpt: (§1) In this procedure, varying concentrations of unlabeled bispecific EGFR-cMet antibody sample compete with donor fluorophore (Europium (Eu) chelate) labeled bispecific EGFR-cMet antibody for binding to an acceptor fluorophore (Cy5)-labeled c-MET antigen. Excitation of the donor fluorophore results in a transfer of energy to the bound acceptor fluorophore (FRET process). The resultant FRET is detected by emission of light at 665 nm using a microplate reader capable of measuring time-resolved fluorescence. Sample dose response curves are compared to the Reference Material (RM).
(§2) c-MET Binding Materials and Methods. Certified commercial cMet, a recombinant cMet/HGFR with c-terminal His-tag is reacted with certified commercial Cy5 Mono NHS Ester to produce Cy5-labeled c-MET. Validated bispecific EGFR-cMet antibody is reacted with certified commercial Europium (Eu) chelate to produce Eu labeled bispecific EGFR-cMet antibody. […] Fluorescence is then measured by spectrophotometry at 665 nm, plotted against antibody concentration and analyzed by a four-parameter logistic model. The antibody concentration required to obtain half of the maximum fluorescence response (EC50) is determined for RM, assay control and samples. The potencies of assay control and samples are calculated based on the ratio of the sample (or control) and RM EC50 values and reported as a percentage activity relative to the RM.

[2] = target: T1, recombinant cMet/HGFR with c-terminal …; experiment: competitive TR-FRET (Eu-amivantamab/Cy5-c-MET), EC50 ratio vs Reference Material; Ex. 2 Formulation 2 (50 mM histidine), T0, 25 C table
Excerpt: as §1, §2

[3] = target: T1, recombinant cMet/HGFR with c-terminal …; experiment: competitive TR-FRET (Eu-amivantamab/Cy5-c-MET), EC50 ratio vs Reference Material; Ex. 2 Formulation 1 (10 mM histidine), 1 month at 40 C
Excerpt: as §1, §2

[4] = target: T2, recombinant human EGFR/ErbB1/HER1 with C-terminal His tag, Cy5-labeled (human, UniProt P00533 25-645, Cy5 label (reacted with Cy5 Mono NHS Ester; sites not stated)); experiment: competitive TR-FRET (Eu-amivantamab/Cy5-EGFR), EC50 ratio vs Reference Material; Ex. 11 drug product, 5 months at 5 C
T2 construct: Commercial protein; also called Cy5-EGFR; Cy5-labeled EGFR antigen; not shown: C-terminal His tag
Excerpt: as §1, with “EGFR” for “c-MET”, “RM.” for “Reference Material (RM).”
as §2, with “EGFR” for “c-MET”, “EGFR,” for “cMet,”, “human EGFR/ErbB1/HER1” for “cMet/HGFR”, “C-terminal His tag” for “c-terminal His-tag”, “EGFR.” for “c-MET.”, “Eu-labeled” for “Eu labeled”

[5] = target: T1, recombinant cMet/HGFR with c-terminal …; experiment: competitive TR-FRET (Eu-amivantamab/Cy5-c-MET), EC50 ratio vs Reference Material; Ex. 12 drug product with rHuPH20, 6 months at 25 C
Excerpt: as §1, §2

[6] = target: T1, recombinant cMet/HGFR with c-terminal …; experiment: competitive TR-FRET (Eu-amivantamab/Cy5-c-MET), EC50 ratio vs Reference Material; Ex. 2 Formulation 1 (10 mM histidine), 3 months at 40 C
Excerpt: as §1, §2

[7] = target: T1, recombinant cMet/HGFR with c-terminal …; experiment: competitive TR-FRET (Eu-amivantamab/Cy5-c-MET), EC50 ratio vs Reference Material; Ex. 11 drug product, 1 month at 40 C
Excerpt: as §1, §2

[8] = target: T1, recombinant cMet/HGFR with c-terminal …; experiment: competitive TR-FRET (Eu-amivantamab/Cy5-c-MET), EC50 ratio vs Reference Material; Ex. 12 drug product with rHuPH20, 12 months at 5 C
Excerpt: as §1, §2

cMET Binding % activity relative to RM [1]: 105% | cMET Binding % activity relative to RM [2]: 102% | cMET Binding % activity relative to RM [3]: 96% | EGFR Binding activity relative to Reference Material (%) [4]: 85% | cMET Binding activity relative to Reference Material (%) [5]: 103% | cMET Binding % activity relative to RM [6]: 67% | cMET Binding activity relative to Reference Material (%) [7]: 84% | cMET Binding activity relative to Reference Material (%) [8]: 97%
B1: amivantamab (bispecific antibody, human IgG1, kappa)
heavy 1: not shown
light 1: not shown
heavy 2: not shown
light 2: DIQMTQSPSSVSASVGDRVTITCRASQGISNWLAWFQHKPGKAPKLLIYAASSLLSGVPSRFSGSGSGTDFTLTISSLQPEDFATYYCQQANSFPITFGQGTRLEIKRTVAAPSVFIFPPSDEQLKSGTASVVCLLNNFYPREAKVQWKVDNALQSGNSQESVTEQDSKDSTYSLSSTLTLSKADYEKHKVYACEVTHQGLSSPVTKSFNRGEC
notes: The samples tested were high concentration (160 mg/mL) formulations, fresh or stored or stressed; also called JNJ-61186372; bispecific EGFR-cMet antibody
